# Data from the RNAGym collection of RNA variant scans (doi:10.1093/nar/gkz1192).
# B1: CPEB3 Ribozyme (parent)
# chain: UAACAGGGGGCCACAGCAGAAGCGUUCACGUCGCAGCCCCUGUCAGAUUCUGGUGAAUCUGCGAAUUCUGCUGUAUAUCUC
# Variants of: B1
# Assay: self-cleavage, relative activity (ratio to wild type); higher = more cleavage; in vitro, sequencing
# Summary of the method: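 After error-prone PCR and barcoding, CPEB3 ribozyme mutant libraries were transcribed with T7 RNA polymerase at 37°C for 5 hours, then given 15 min with DNase I before an EDTA stop, and they cleaved during both steps. Reverse transcription with template switching preceded Illumina sequencing. Relative activity divides a variant's cleaved/total read fraction by the unmutated ribozyme's. At least 5 reads were required per variant, and three batches were averaged.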
row,Variant,self-cleavage
1,UAACAGGGGGCCACAGCGGAAGCGUUCACGUCGCACCCCCUGUCAGAUUCUGGUGAAUCUGCGAAUUCUGCUGUAUAUCUC,0.13
2,UAACAGGGGGCCACAGCGGAAGCGUUCACGUCGCAACCCCUGUCAGAUUCUGGUGAAUCUGCGAAUUCUGCUGUAUAUCUC,0.31
3,UAACAGGGGGCCACAGCGGAAGCGUUCACGUCGCAGCCCCUGUCAGAUUCUGGUGAAUCUGCGAAUUCUACUGUAUAUCUC,0.37
4,UAACAGGGGGCCACAGCGGAAGCGUUCACGUCGCAGCCCCUGUCAGAUUCUGGUGAAUCUGCGAAUUCUCCUGUAUAUCUC,0.13
5,UAACAGGGGGCCACAGCGGAAGCGUUCACGUCGCAGCCCCUGUCAGACUCUGGUGAAUCUGCGAAUUCUGCUGUAUAUCUC,0.31
6,UAACAGGGGGCCACAGCGGAAGCGUUCACGUCGCAGCCCCUGUCAGAAUCUGGUGAAUCUGCGAAUUCUGCUGUAUAUCUC,0.16
7,UAACAGGGGGCCACAGCGGAAGCGUUCACGUCGCAGCCCCUGUCAGAUUCUGGUGAAUCUGCGAAUUCUGUUGUAUAUCUC,0.28
8,UAACAGGGGGCCACAGCGGAAGCGUUCACGUCGCAGCCCCUGUCAGAUUCUGGUGAAUCUGCGAAUUCUGGUGUAUAUCUC,0.27
9,UAACAGGGGGCCACAGCGGAAGCGUUCACGUCGCAGCCCCUGUCAGAUUCUGGUGAAUCUGCGAAUUCUGAUGUAUAUCUC,0.29
10,UAACAGGGGGCCACAGCGGAAGCAUUCACGUCGCAGCCCCUGUCAGAUUCUGGUGAAUCUGCGAAUUCUGCUGUAUAUCUC,0.15
11,UAACAGGGGGCCACAGCGGAAGCCUUCACGUCGCAGCCCCUGUCAGAUUCUGGUGAAUCUGCGAAUUCUGCUGUAUAUCUC,0.28
12,UAACAGGGGGCCACAGCGGAAGCGUUCACGUCGCAGCCCCUGUCAGAUUCUGGUGAAUCUGCGAAUUCUGCUGUAUAUCUA,0.55
13,UAACAGGGGGCCACAGCGGAAUCGUUCACGUCGCAGCCCCUGUCAGAUUCUGGUGAAUCUGCGAAUUCUGCUGUAUAUCUC,0.22
14,UAACAGGGGGCCACAGCGGAAACGUUCACGUCGCAGCCCCUGUCAGAUUCUGGUGAAUCUGCGAAUUCUGCUGUAUAUCUC,0.24
15,UAACAGGGGGCCACAGCGGAACCGUUCACGUCGCAGCCCCUGUCAGAUUCUGGUGAAUCUGCGAAUUCUGCUGUAUAUCUC,0.24
16,UAACAGGGGGCCACAGCGGAAGCGUUCACGUCGCAGCCCCUGUCAGAUCCUGGUGAAUCUGCGAAUUCUGCUGUAUAUCUC,0.29
17,UAACAGGGGGCCACAGCGGAAGCGUUCACGUCGCAGCCCCUGUCAGAUACUGGUGAAUCUGCGAAUUCUGCUGUAUAUCUC,0.32
18,UAACAGGGGGCCACAGCGGAAGCGUUCACGUCACAGCCCCUGUCAGAUUCUGGUGAAUCUGCGAAUUCUGCUGUAUAUCUC,0.23
19,UAACAGGGGGCCACAGCGGAAGCGUUCACGUCUCAGCCCCUGUCAGAUUCUGGUGAAUCUGCGAAUUCUGCUGUAUAUCUC,0.19
20,UAACAGGGGGCCACAGCGGAAGCGUUCACGUCGCAGCCCCUGUCAGAUUCUUGUGAAUCUGCGAAUUCUGCUGUAUAUCUC,0.83
21,UAACAGGGGGCCACAGCGGAAGCGUUCACGUCGCAGCCCCUGUCAGAUUCUAGUGAAUCUGCGAAUUCUGCUGUAUAUCUC,0.82
22,UAACAGGGGGCCACAGCGGAAGCGUUCACGUCGCAGCCCCUGUCAGAUUCUCGUGAAUCUGCGAAUUCUGCUGUAUAUCUC,0.94
23,UAACAGGGGGCCACAGCGGAAGCGUUCACGUCGCAGCCCCUGCCAGAUUCUGGUGAAUCUGCGAAUUCUGCUGUAUAUCUC,0.35

row,Variant,self-cleavage
1,UAACAGGGGGCCACAGCGGAAGCGUUCACGUCGCAGCCCCUGACAGAUUCUGGUGAAUCUGCGAAUUCUGCUGUAUAUCUC,0.72
2,UAACAGGGGGCCACAGCGGAAGCGUUCACGUCGCAGCCCCUGGCAGAUUCUGGUGAAUCUGCGAAUUCUGCUGUAUAUCUC,0.36
3,UAACAGGGGGCCACAGCGGAAGCGUUCACGUCGCAGCCCCCGUCAGAUUCUGGUGAAUCUGCGAAUUCUGCUGUAUAUCUC,0.68
4,UAACAGGGGGCCACAGCGGAAGCGUUCACGUCGCAGCCCCAGUCAGAUUCUGGUGAAUCUGCGAAUUCUGCUGUAUAUCUC,0.26
5,UAACAGGGGGCCACAGCGGAAGCGUUCACGUCGCAGCCCCGGUCAGAUUCUGGUGAAUCUGCGAAUUCUGCUGUAUAUCUC,0.42
6,UAACAGGGGGCCACAGCGGAAGCGUUCACGUCGCAGCCCCUGUCAGAUUCUGGUGAAUCUGCGAAUUCUGCUAUAUAUCUC,1.24
7,UAACAGGGGGCCACAGCGGAAGCGUUCACGUCGCAGCCCCUGUCAGAUUCUGGUGAAUCUGCAAAUUCUGCUGUAUAUCUC,0.51
8,UAACAGGGGGCCACAGCGGAAGCGUUCACGUCGCAGCCCCUGUCAGAUUCUGGUGAAUCUGCUAAUUCUGCUGUAUAUCUC,1.02
9,UAACAGGGGGCCACAGCGGAAGCGUUCACGUCGCAGCCCCUGUCAGAUUCUGGUGAAUCUGCCAAUUCUGCUGUAUAUCUC,0.55
10,UAACAGGGGGCCACAGCGGAAGCGUUCACGUCGCAGCCCCUGUCAGAUUCUGGUGAAUCUGCGAAUUCUGCUGUAUAUGUC,0.73
11,UAACAGGGGGCCACAGCGGAAGCGUUCACGUCGCAGCCCCUGUCAGAUUCUGGUGAAUCUGCGAAUUCUGCUGUAUAUUUC,0.9
12,UAACAGGGGGCCACAGCGUAAGCGUUCACGUCGCAGCCCCUGUCAGAUUCUGGUGAAUCUGCGAAUUCUGCUGUAUAUCUC,0.32
13,UAACAGGGGGCCACAGCGCAAGCGUUCACGUCGCAGCCCCUGUCAGAUUCUGGUGAAUCUGCGAAUUCUGCUGUAUAUCUC,0.2
14,UAACAGGGGGCCACAGCGGAAGCGUUCACGUCGCAGCCCCUGUCAGAUUCUGGUGAAUCUACGAAUUCUGCUGUAUAUCUC,0.3
15,UAACAGGGGGCCACAGCGGAAGCGUUCACGUCGCAGCCCCUGUCAGAUUCUGGUAAAUCUGCGAAUUCUGCUGUAUAUCUC,0.47
16,UAACAGGGGGCCACAGCGGAAGCGUUCACGUCGCAGCCCCUGUCAGAUUCUGGUUAAUCUGCGAAUUCUGCUGUAUAUCUC,0.7
17,UAACAGGGGGCCACAGCGGAAGCGUUCACGCCGCAGCCCCUGUCAGAUUCUGGUGAAUCUGCGAAUUCUGCUGUAUAUCUC,0.3
18,UAACAGGGGGCCACAGCGGAAGCGUUCACGACGCAGCCCCUGUCAGAUUCUGGUGAAUCUGCGAAUUCUGCUGUAUAUCUC,0.41
19,UAACAGGGGGCCACAGCGGAAGCGUUCACGUCGCAGCCCCUGUCAGAUUCUGGUGAAUCUGAGAAUUCUGCUGUAUAUCUC,0.23
20,UAACAGGGGGCCACAGCGGAAGCGUUCACGUCGCAGCCCCUGUCAGAUUCUGGUGAAUCUGUGAAUUCUGCUGUAUAUCUC,0.32
21,UAACAGGGGGCCACAGCGGAAGCGUUCACGUCGCAGCCCCUGUCAGAUUCUGGUGAAUCUGGGAAUUCUGCUGUAUAUCUC,0.13
22,UAACAGGGGGCCACAGCGGAAGCGUUCACGUCGCAGCCCCUUUCAGAUUCUGGUGAAUCUGCGAAUUCUGCUGUAUAUCUC,0.27
23,UAACAGGGGGCCACAGCGGAAGCGUUCACAUCGCAGCCCCUGUCAGAUUCUGGUGAAUCUGCGAAUUCUGCUGUAUAUCUC,0.2

row,Variant,self-cleavage
1,UAACAGGGGGCCACAGCGGAAGCGAUCACGUCGCAGCCCCUGUCAGAUUCUGGUGAAUCUGCGAAUUCUGCUGUAUAUCUC,0.38
2,UAACAGGGGGCCACAGCGGAAGCGCUCACGUCGCAGCCCCUGUCAGAUUCUGGUGAAUCUGCGAAUUCUGCUGUAUAUCUC,0.26
3,UAACAGGGGGCCACAGCGGAAGCGGUCACGUCGCAGCCCCUGUCAGAUUCUGGUGAAUCUGCGAAUUCUGCUGUAUAUCUC,0.17
4,UAACAGGGGGCCACAGCGGAAGCGUUCACGUCGCAGCCCCUGUCAGAUUCUGUUGAAUCUGCGAAUUCUGCUGUAUAUCUC,0.56
5,UAACAGGGGGCCACAGCGGAAGCGUUCACGUCGCAGCCCCUGUCAGAUUCUGAUGAAUCUGCGAAUUCUGCUGUAUAUCUC,0.9
6,UAACAGGGGGCCACAGCGGAAGCGUUCACGUCGCAGCCCCUGUCAGAUUCUGGUGAAACUGCGAAUUCUGCUGUAUAUCUC,0.21
7,UAACAGGGGGCCACAGCGGAAGCGUUCACGUCGCAGCCCCUGUCAGAUUCUGGUGAACCUGCGAAUUCUGCUGUAUAUCUC,0.28
8,UAACAGGGGGCCACAGCGGAAGCGUUCACGUCGCAGCCCCUGUCAGAUUCUGGUGAAGCUGCGAAUUCUGCUGUAUAUCUC,0.28
9,UAACAGGGGGCCACAGCGGAAGCGUUCACGUCGCAGCCCCUGUCAGAUUCUGGUGAAUCUGCGAAUUUUGCUGUAUAUCUC,0.52
10,UAACAGGGGGCCACAGCGGAAGCGUUCACGUCGCAGCCCCUGUCAGAUUCUGGUGAAUCUGCGAAUUAUGCUGUAUAUCUC,0.21
11,UAACAGGGGGCCACAGCGGAAGCGUUCACGUCGCAGCCCCUGUCAGAUUCUGGGGAAUCUGCGAAUUCUGCUGUAUAUCUC,0.36
12,UAACAGGGGGCCACAGCGGAAGCGUUCACGUCGCAGCCCCUGUCAGAUUCUGGCGAAUCUGCGAAUUCUGCUGUAUAUCUC,0.57
13,UAACAGGGGGCCACAGCGGAAGCGUUCACGUCGCAGCCCCUGUCAGAUUCUGGAGAAUCUGCGAAUUCUGCUGUAUAUCUC,0.8
14,UAACAGGGGGCCACAGCGGAAGCGUUCACGUCGCAGCCCCUGUCAGAUUCAGGUGAAUCUGCGAAUUCUGCUGUAUAUCUC,0.74
15,UAACAGGGGGCCACAGCGGAAGCGUUCACGUCGCAGCCCCUGUCAGAUUCCGGUGAAUCUGCGAAUUCUGCUGUAUAUCUC,0.48
16,UAACAGGGGGCCACAGCGGAAGCGUUCACGUCGCAGCCCCUGUCAGAUUCGGGUGAAUCUGCGAAUUCUGCUGUAUAUCUC,0.77
17,UAACAGGGGGCCACAGCGGAAGCGUUCACGUCGCAGCCCCUGUCAAAUUCUGGUGAAUCUGCGAAUUCUGCUGUAUAUCUC,0.35
18,UAACAGGGGGCCACAGCGGAAGCGUUCACGUCGCAGCCCCUGUCAUAUUCUGGUGAAUCUGCGAAUUCUGCUGUAUAUCUC,0.16
19,UAACAGGGGGCCACAGCGGAAGCGUACACGUCGCAGCCCCUGUCAGAUUCUGGUGAAUCUGCGAAUUCUGCUGUAUAUCUC,0.48
20,UAACAGGGGGCCACAGCGGAAGCGUCCACGUCGCAGCCCCUGUCAGAUUCUGGUGAAUCUGCGAAUUCUGCUGUAUAUCUC,0.33
21,UAACAGGGGGCCACAGCGGAAGCGUUCACGUCGCAGCCCCUGUCAGAUUCUGGUGAAUGUGCGAAUUCUGCUGUAUAUCUC,0.25
22,UAACAGGGGGCCACAGCGGAAGCGUUCACGUCGCAGCCCCUGUCAGAUUCUGGUGAAUUUGCGAAUUCUGCUGUAUAUCUC,0.43
